Source: patent US8008452B2, “Phosphorylated Ndr kinase” (Novartis Forschungesstiftung, Zweigniederlassung Friedrich …, priority 2002, dated 2011)

Experiments:
GST-NDR1 [1] = assay: GST-NDR1 in vitro autophosphorylation, incorporated 32P by Cerenkov counting; assay type: biochemical, human
Method: BL21-DE3-pRep4 E. coli strain was transformed with the pGEX-2T_NDR1 wild type or mutant plasmids. BL21-DE3 is a protease-deficient E. coli strain and pRep4 is a Laclq repressor-bearing plasmid both available commercially. Optionally, if desired, an E. coli strain comprising GroESL can be used, which expresses a chaperone protein that stabilizes the kinase. Mid-logarithmic phase cells were induced with 0.5 mM isopropyl beta-D-thiogalactopyranoside (IPTG) for 4 hours at 30° C. Bacteria were lysed using a French press in the presence of 1 mg/ml lysosyme, and the fusion proteins were purified on glutathione-agarose (Amersham Pharmacia Biotech) as described by the manufacturers. Recombinant proteins were assayed for kinase activity as described below and autophosphorylation was determined after SDS-PAGE separation either by Cerenkov counting or by exposure to a PhosphorImager screen followed by analysis with ImageQuant software (Molecular Dynamics).
In brief, 1 microgram of purified GST-NDR1 (in solution ˜0.5 microM) wild type, kinase dead (K118A), and alanine mutants of phosphorylation residues Thr74, Ser281, and Thr444 were autophosphorylated for 2 hours in vitro without further additions or in the presence of 1 mM CaCl2 and 10 microM bovine S100B. Proteins were visualized on SDS gels using Coomassie Blue R-350 stained SDS-PAGE gel, and [gamma-^32P]ATP-labelled proteins were visualized by autoradiography of the gels developed on a Phosphorimager screen. The amount of incorporated ^32P was quantified by Cerenkov counting.

GST-NDR1 [2] = assay: Immunodetection of GST-NDR1 phosphorylated on Ser281 or Thr444 after in vitro autophosphorylation; assay type: biochemical, human; settings: in vitro autophosphorylation with or without Ca2+/S100B
Method: Either 1 microgram GST-NDR1 or HA-NDR1 immunoprecipitated from 100 microgram COS-1 detergent extracts as described above was separated on 10% SDS-PAGE and immunoblotted 2 h at RT or overnight at 4° C. with anti-Ser281P antisera (1:1000) in the presence of 50 microg/ml competing unphosphopeptide or anti-Thr444P purified antibody (1:500). Both antibodies were detected with horseradish peroxidase-conjugated donkey anti-rabbit Ig antibody (Amersham biosciences) and developed by ECL (chemiluminescence; Amersham Pharmacia Biotech).
To reliably quantify the effect of S100B on NDR1 phosphorylation status, rabbit polyclonal antibodies were raised against phosphoepitopes comprising Ser281 or Thr444. GST-NDR1 mutants were treated essentially as described in Example 2 and detected either with anti-NDR1_C-term antiserum or polyclonal antibodies recognising NDR1 phosphorylated on Ser281 or Thr444.

B1: S281A: NDR1 alanine mutant of phosphorylation residue Ser281; GST fusion or HA-tagged (protein)
chain: MAMTGSTPCSSMSNHTKERVTMTKVTLENFYSNLIAQHEEREMRQKKLEKVMEEEGLKDEEKRLRRSAHARKETEFLRLKRTRLGLEDFESLKVIGRGAFGEVRLVQKKDTGHVYAMKILRKADMLEKEQVGHIRAERDILVEADSLWVVKMFYSFQDKLNLYLIMEFLPGGDMMTLLMKKDTLTEEETQFYIAETVLAIDSIHQLGFIHRDIKPDNLLLDSKGHVKLSDFGLCTGLKKAHRTEFYRNLNHSLPSDFTFQNMNSKRKAETWKRNRRQLAFATVGTPDYIAPEVFMQTGYNKLCDWWSLGVIMYEMLIGYPPFCSETPQETYKKVMNWKETLTFPPEVPISEKAKDLILRFCCEWEHRIGAPGVEEIKSNSFFEGVDWEHIRERPAAISIEIKSIDDTSNFDEFPESDILKPTVATSNHPETDYKNKDWVFINYTYKRFEGLTARGAIPSYMKAAK
modifications: left off: small tags and cut ends
notes: NDR1 alanine mutant of phosphorylation residue Ser281; GST fusion or HA-tagged
GST-NDR1 [1]; GST-NDR1 variant, 1 microgram, autophosphorylated 2 hours without further additions, pmol ATP/pmol GST-NDR1
  amount of incorporated 32P (autophosphorylation), −S100B: 0.0192
GST-NDR1 [1]; GST-NDR1 variant, 2 hours in the presence of 1 mM CaCl2 and 10 microM bovine S100B, in pmol ATP/pmol GST-NDR1
  amount of incorporated 32P (autophosphorylation), +S100B: 0.028
GST-NDR1 [1]; compared with wild type
  autophosphorylation rate of GST-NDR1 mutant (in words): dramatically reduced autophosphorylation rate
GST-NDR1 [2]
  phosphorylation of GST-NDR1 on Ser281 and Thr444 (phosphospecific antibodies): entirely abolishes the autophosphorylation on Thr444
